Measured values reported in publication PMC6770517, “Insight into the Antifungal Mechanism of Action of Human RNase N-terminus Derived Peptides” (International Journal of Molecular Sciences, 2019).

Tests used:
[1] = β-D-Glucan binding assay (supernatant SDS-PAGE); parameters: species or system yeast; settings: β-D-Glucan 0.4 mg/mL, 1 μM, PBS, 30 °C, up to 1 h; unbound fraction by SDS-PAGE
Experimental: (§1) C. albicans was cultured overnight in Sabouraud Dextrose broth at 30 °C, sub-cultured the next day and grown to an optical density of 0.4 at 592 nm (mid log-phase). Cells were washed twice in PBS and adjusted to 2 × 10^6 cells/mL. Cells and yeast β-D-Glucan (0.4 mg/mL) (Sigma) were respectively incubated in 100 μL of PBS at 30 °C with proteins and peptides at 1 μM final concentration during different periods of time up to 1 h. Following, the samples were centrifuged at 12,000× g. The supernatant samples were concentrated, and the presence of the proteins and peptides was checked by 15–18% SDS-PAGE and Coomassie Blue staining. Reference protein controls were treated following the same protocol in the absence of cells.

C. albicans cells [2] = test: Cell binding assay (supernatant SDS-PAGE); parameters: species or system Candida albicans (ATCC 90028); settings: 1 μM, PBS, 30 °C, 15, 30 and 60 min; unbound fraction by SDS-PAGE
Experimental: as §1

C. albicans cells [3] = test: Minimal agglutination activity (MAC); format: cell-based, Candida albicans (ATCC 90028); settings: protein tested up to 20 μM
Experimental: C. albicans cells were grown at 30 °C to an OD592 of 1.0, diluted 10 times, centrifuged at 5000× g for 2 min, and resuspended in 1× PBS. An aliquot of 100 μL of the cellular suspension was treated with increasing peptide concentrations (from 0.01 to 20 μM) and incubated at 30 °C for 1 h. The aggregation behavior was observed by visual inspection, and the agglutinating activity is expressed as the minimum agglutinating concentration of the sample tested, as previously described. Images were taken using a 50× stereoscope microscope.

B1: hRNase3: human ribonuclease 3 of the RNaseA superfamily, parental protein of RN3 (protein, UniProt P12724 28-160, looked up)
Eosinophil cationic protein: RPPQFTRAQWFAIQHISLNPPRCTIAMRAINNYRWRCKNQNTFLRTTFANVVNVCGNQSIRCPHNRTLNNCHRSRFRVPLLHCDLINPGAQNISNCTYADRPGRRFYVVACDNRDPRDSPRYPVVPVHLDTTI
[1]
  binding to main cell wall component (β-D-Glucan): positive binding
C. albicans cells [2]
  binding to C. albicans cell wall: able to bind to the C. albicans cell wall
C. albicans cells [3]
  agglutination of C. albicans by the parental hRNase: able to agglutinate C. albicans
